Assays:
Experiment in all cases: cell-based or functional assay
GSK3α(h) (human) = GSK3α(h) (human) (UniProt P49840)
mTOR(h) (human) = mTOR(h) (human) (UniProt P42345)
Flt3(h) (human) = molecular target: T1, Flt3(h) (human) (UniProt P36888)
T1 sequence (looked up): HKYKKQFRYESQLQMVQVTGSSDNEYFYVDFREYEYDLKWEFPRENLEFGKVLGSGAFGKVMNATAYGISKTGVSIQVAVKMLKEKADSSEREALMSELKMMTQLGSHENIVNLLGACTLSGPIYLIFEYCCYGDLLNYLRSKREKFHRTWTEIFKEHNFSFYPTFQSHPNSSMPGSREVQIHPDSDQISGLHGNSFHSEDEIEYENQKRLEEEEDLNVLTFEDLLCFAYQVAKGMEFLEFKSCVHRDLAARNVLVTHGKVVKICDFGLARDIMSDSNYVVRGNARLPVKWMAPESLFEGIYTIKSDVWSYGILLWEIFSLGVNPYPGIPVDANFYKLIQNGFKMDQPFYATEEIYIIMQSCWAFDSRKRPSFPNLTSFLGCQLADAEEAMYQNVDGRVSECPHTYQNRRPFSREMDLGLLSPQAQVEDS

SAPK2a(h) (human) = SAPK2a(h) (human) (UniProt Q16539)
MKK6(h) (human) = MKK6(h) (human) (UniProt P52564)
BrSK1(h) (human) = molecular target: T2, BrSK1(h) (human) (UniProt Q8TDC3)
T2 sequence (looked up): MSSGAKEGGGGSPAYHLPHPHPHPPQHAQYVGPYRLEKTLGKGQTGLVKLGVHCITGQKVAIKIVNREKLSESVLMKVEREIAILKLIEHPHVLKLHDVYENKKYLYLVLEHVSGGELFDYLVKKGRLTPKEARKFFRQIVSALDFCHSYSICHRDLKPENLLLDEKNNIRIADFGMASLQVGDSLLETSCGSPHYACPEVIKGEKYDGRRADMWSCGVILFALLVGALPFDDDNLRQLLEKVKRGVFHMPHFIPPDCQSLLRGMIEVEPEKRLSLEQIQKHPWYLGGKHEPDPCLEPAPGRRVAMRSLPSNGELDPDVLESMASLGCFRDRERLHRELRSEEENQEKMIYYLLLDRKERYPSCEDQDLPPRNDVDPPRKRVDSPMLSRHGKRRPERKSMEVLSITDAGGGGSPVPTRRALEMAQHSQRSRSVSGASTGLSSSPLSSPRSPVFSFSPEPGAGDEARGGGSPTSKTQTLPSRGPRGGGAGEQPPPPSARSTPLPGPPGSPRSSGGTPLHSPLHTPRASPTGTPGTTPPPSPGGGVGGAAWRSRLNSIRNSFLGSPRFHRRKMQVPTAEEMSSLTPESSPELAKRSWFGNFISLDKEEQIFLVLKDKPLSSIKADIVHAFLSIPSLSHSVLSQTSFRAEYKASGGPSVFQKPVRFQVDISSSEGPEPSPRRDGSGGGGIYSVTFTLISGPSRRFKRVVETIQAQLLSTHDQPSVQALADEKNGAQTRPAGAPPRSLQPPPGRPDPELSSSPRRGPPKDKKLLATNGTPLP

ULK2(h) (human) = molecular target: T3, ULK2(h) (human) (UniProt Q8IYT8)
T3 sequence (looked up): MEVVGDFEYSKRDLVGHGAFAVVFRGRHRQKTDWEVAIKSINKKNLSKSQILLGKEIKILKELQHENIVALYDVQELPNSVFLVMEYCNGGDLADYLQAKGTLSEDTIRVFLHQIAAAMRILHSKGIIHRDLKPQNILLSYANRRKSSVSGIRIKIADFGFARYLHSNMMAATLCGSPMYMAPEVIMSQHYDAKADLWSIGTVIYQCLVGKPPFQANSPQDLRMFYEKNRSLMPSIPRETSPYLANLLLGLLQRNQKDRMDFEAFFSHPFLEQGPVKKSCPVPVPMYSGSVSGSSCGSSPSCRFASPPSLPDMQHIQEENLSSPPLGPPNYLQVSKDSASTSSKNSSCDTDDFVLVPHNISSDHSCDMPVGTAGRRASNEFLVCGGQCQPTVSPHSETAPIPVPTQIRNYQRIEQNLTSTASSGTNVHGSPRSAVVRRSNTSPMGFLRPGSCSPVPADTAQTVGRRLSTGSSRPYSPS

JNK3(h) (human) = JNK3(h) (human) (UniProt P53779)
Syk(h) (human) = Syk(h) (human) (UniProt P43405)
Tie2(h) (human) = Tie2(h) (human) (UniProt Q02763)
CDK1/cyclinB(h) (human) = CDK1/cyclinB(h) (human) (UniProt P06493)
IRAK4(h) (human) = molecular target: T4, IRAK4(h) (human) (UniProt Q9NWZ3)
T4 sequence (looked up): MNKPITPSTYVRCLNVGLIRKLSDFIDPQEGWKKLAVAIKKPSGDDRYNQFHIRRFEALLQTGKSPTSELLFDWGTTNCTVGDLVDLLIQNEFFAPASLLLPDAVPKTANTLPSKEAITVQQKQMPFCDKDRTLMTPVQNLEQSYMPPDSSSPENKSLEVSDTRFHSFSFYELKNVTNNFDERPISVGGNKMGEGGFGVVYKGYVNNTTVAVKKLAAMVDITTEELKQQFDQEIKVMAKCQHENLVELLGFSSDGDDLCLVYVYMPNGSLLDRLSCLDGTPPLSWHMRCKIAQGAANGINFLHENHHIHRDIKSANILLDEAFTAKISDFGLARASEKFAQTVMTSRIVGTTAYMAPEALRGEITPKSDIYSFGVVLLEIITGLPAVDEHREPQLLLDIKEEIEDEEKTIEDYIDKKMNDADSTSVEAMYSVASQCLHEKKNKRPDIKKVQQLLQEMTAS

DMPK(h) (human) = DMPK(h) (human) (UniProt Q09013)
MST3(h) (human) = MST3(h) (human) (UniProt Q9Y6E0)
Plk3(h) (human) = Plk3(h) (human) (UniProt Q9H4B4)
SGK(h) (human) = SGK(h) (human) (UniProt O00141)
IRAK1(h) (human) = IRAK1(h) (human) (UniProt P51617)
CDK5/p25(h) (human) = CDK5/p25(h) (human) (UniProt Q00535)
ROCK-II(h) (human) = ROCK-II(h) (human) (UniProt O75116)
FGFR4(h) (human) = FGFR4(h) (human) (UniProt P22455)
Chain of FGFR4(h) (human) (P22455 442-753 limits assumed): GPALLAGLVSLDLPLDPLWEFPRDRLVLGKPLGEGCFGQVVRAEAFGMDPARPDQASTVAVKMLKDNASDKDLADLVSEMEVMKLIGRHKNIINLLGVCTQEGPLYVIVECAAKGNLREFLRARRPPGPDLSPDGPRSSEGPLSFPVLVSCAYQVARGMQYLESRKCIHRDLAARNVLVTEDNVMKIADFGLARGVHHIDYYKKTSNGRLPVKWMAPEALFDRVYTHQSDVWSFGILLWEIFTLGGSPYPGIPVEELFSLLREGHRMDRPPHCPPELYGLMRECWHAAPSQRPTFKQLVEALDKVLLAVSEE

Chain of SAPK2a(h) (human) (Q16539 whole entry): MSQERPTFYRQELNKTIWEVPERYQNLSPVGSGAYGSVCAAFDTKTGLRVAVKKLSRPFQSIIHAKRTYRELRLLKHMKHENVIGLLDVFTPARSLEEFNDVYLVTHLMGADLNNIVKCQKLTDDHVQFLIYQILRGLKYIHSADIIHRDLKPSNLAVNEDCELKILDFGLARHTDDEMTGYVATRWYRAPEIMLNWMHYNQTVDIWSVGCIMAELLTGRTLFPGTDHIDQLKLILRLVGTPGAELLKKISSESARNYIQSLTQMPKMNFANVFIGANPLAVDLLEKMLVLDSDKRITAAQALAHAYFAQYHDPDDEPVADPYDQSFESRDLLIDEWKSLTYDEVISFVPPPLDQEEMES
Chain of SGK(h) (human) (O00141 60-431 limits assumed): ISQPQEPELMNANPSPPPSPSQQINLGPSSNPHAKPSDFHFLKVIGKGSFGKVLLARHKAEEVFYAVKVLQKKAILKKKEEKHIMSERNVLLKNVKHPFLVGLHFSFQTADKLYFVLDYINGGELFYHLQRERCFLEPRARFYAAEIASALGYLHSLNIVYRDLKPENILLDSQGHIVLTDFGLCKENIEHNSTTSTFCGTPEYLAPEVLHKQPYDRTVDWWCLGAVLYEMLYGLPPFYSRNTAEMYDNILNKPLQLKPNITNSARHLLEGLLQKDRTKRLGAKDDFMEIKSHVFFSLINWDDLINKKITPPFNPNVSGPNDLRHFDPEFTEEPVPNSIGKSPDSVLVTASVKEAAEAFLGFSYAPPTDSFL
Chain of Tie2(h) (human) (Q02763 771-1124 limits assumed): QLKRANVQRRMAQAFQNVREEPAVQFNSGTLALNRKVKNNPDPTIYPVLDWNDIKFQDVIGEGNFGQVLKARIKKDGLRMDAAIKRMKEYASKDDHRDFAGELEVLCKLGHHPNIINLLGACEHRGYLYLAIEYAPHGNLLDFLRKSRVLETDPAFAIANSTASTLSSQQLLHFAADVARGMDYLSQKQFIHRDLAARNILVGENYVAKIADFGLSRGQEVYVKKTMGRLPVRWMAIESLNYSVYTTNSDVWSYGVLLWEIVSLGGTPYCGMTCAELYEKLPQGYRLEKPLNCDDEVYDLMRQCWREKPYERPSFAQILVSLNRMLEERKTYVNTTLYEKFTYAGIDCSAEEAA
Chain of mTOR(h) (human) (P42345 1362-2549 limits assumed): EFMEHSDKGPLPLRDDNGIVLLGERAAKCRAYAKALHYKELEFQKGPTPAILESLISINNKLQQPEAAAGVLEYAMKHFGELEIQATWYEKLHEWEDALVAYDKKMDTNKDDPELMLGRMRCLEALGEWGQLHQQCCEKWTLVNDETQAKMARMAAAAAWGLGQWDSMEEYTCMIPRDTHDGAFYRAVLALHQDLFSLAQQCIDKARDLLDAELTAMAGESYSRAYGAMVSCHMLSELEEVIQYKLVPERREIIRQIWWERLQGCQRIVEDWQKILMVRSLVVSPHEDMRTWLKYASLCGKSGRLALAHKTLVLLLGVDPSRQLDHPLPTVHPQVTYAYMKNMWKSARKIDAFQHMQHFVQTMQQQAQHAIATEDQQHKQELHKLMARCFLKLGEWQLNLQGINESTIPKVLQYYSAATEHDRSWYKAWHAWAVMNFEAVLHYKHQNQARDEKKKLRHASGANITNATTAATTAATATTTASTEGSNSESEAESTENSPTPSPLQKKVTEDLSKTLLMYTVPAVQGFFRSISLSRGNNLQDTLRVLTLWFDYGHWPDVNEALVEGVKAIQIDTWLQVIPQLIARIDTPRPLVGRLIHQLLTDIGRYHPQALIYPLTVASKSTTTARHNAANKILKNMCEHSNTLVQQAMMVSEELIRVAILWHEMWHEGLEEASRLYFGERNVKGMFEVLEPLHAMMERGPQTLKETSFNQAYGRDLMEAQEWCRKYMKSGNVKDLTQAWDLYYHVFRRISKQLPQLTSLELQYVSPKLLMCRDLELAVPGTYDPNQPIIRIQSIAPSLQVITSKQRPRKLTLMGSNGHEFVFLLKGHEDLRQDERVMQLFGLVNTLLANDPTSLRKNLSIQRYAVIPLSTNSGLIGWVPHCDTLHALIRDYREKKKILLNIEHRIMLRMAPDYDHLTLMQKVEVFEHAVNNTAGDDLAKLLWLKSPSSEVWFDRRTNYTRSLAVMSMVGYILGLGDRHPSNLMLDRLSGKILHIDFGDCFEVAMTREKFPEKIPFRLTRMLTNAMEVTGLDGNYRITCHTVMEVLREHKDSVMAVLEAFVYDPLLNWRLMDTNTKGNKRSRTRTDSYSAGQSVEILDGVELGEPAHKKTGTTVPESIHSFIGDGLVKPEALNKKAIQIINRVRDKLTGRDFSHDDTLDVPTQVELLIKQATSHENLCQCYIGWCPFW

% activity at 100 µM (GSK3α(h) (human))	% activity at 100 µM (mTOR(h) (human))	% activity at 100 µM (Flt3(h) (human))	% activity at 100 µM (SAPK2a(h) (human))	% activity at 100 µM (MKK6(h) (human))	% activity at 100 µM (BrSK1(h) (human))	% activity at 100 µM (ULK2(h) (human))	% activity at 100 µM (JNK3(h) (human))	% activity at 100 µM (Syk(h) (human))	% activity at 100 µM (Tie2(h) (human))	% activity at 100 µM (CDK1/cyclinB(h) (human))	% activity at 100 µM (IRAK4(h) (human))	% activity at 100 µM (DMPK(h) (human))	% activity at 100 µM (MST3(h) (human))	% activity at 100 µM (Plk3(h) (human))	% activity at 100 µM (SGK(h) (human))	% activity at 100 µM (IRAK1(h) (human))	% activity at 100 µM (CDK5/p25(h) (human))	% activity at 100 µM (ROCK-II(h) (human))	% activity at 100 µM (FGFR4(h) (human))	Substance
157%	91%	84%	90%	48%	67%	122%	89%	24%	26%	73%	59%	59%	45%	127%	48%	95%	89%	74%	28%	MMI-0300 (peptide)
164%	93%	18%	85%	44%	76%	131%	70%	9%	21%	74%	59%	54%	36%	129%	54%	93%	92%	77%	19%	MMI-0400 (peptide)
175%	135%	17%	52%	18%	72%	124%	171%	5%	22%	57%	3%	12%	4%	122%	2%	5%	66%	2%	3%	MMI-0500 (peptide)
